From the RNAGym collection of RNA variant scans (doi:10.7554/elife.80360)

B1: Twister Ribozyme (parent)
chain: AACACUGCCAAUGCCGGUCCCAAGCCCGGAUAAAAGUGGAGGGGGCGG

Variants of: B1
Experiment: self-cleavage, relative activity (ratio to wild type); higher = more cleavage; co-transcriptional

Row | Variant | self-cleavage
1 | AACACUGCCAUUGCCGGUCCCAAGCCCGAAUAAAAGUGGAGGGGGCGG [A11U G29A] | 1.02
2 | AACACUGCCAUUGCCGGUCCCAAGCCCGGAUAAAAAUGGAGGGGGCGG [A11U G36A] | 0.559
3 | AACACUGCCAUUGCCGGUCCCAAGCCCGGAUAAAAGUAGAGGGGGCGG [A11U G38A] | 1.16
4 | AACACUGCCAUUGCCGGUCCCAAGCCCGGAUAAAAGUUGAGGGGGCGG [A11U G38U] | 0.875
5 | AACACUGCCAUUGCCGGUCCCAAGCCCGGAUAAAAGUGAAGGGGGCGG [A11U G39A] | 0.63
6 | AACACUGCCAUUGCCGGUCCCAAGCCCGGAUAAAAGUGGAUGGGGCGG [A11U G41U] | 0.889
7 | AACACUGCCAUUGCCGGUCCCAAGCCCGGAUAAAAGUGGAGGAGGCGG [A11U G43A] | 0.336
8 | AACACUGCCAUUGCCGGUCCCAAGCCCGGAUAAAAGUGGAGGUGGCGG [A11U G43U] | 0.606
9 | AACACUGCCAUUGCCGGUCCCAAGCCCGGAUAAAAGUGGAGGGCGCGG [A11U G44C] | 0.969
10 | AACACUGCCAUUGCCGGUCCCAAGCCCGGAUAAAAGUGGAGGGUGCGG [A11U G44U] | 1.07
11 | AACACUGCCAUUGCCGGUCCCAAGCCCGGAUAAAAGUGGAGGGGCCGG [A11U G45C] | 0.733
12 | AACACUGCCAUUGCCGGUCCCAAGCCCGGAUAAAAGUGGAGGGGUCGG [A11U G45U] | 0.953
13 | AACACUGCCAUUGCCGGUCCCAAGCCCGGAUAAAAGUGGAGGGGGCCG [A11U G47C] | 0.624
14 | AACACUGCCAUUGCCGGUCCCAAGCCCGGAUAAAAGUGGAGGGGGCUG [A11U G47U] | 0.98
15 | AACACUGCCAUGGCCGGUCCCAAGCCCGGAUAAAAGUGGAGGGGGCGG [A11U U12G] | 1.05
16 | AACACUGCCAUUGCCGGACCCAAGCCCGGAUAAAAGUGGAGGGGGCGG [A11U U18A] | 1
17 | AACACUGCCAUUGCCGGCCCCAAGCCCGGAUAAAAGUGGAGGGGGCGG [A11U U18C] | 0.617
18 | AACACUGCCAUUGCCGGUCCCAAGCCCGGACAAAAGUGGAGGGGGCGG [A11U U31C] | 1.04
19 | AACACUGCCAAAGCCGGUCCCAAGCCCGGAUAAAAGUGGAGGGGGCGG [U12A] | 1.11
20 | AACACUGCCAAAGCCGGUCCCGAGCCCGGAUAAAAGUGGAGGGGGCGG [U12A A22G] | 0.396
21 | AACACUGCCAAAGCCGGUCCCUAGCCCGGAUAAAAGUGGAGGGGGCGG [U12A A22U] | 1.02
22 | AACACUGCCAAAGCCGGUCCCAUGCCCGGAUAAAAGUGGAGGGGGCGG [U12A A23U] | 0.767
23 | AACACUGCCAAAGCCGGUCCCAAGCCCGGCUAAAAGUGGAGGGGGCGG [U12A A30C] | 0.893
24 | AACACUGCCAAAGCCGGUCCCAAGCCCGGUUAAAAGUGGAGGGGGCGG [U12A A30U] | 1.15
25 | AACACUGCCAAAGCCGGUCCCAAGCCCGGAUUAAAGUGGAGGGGGCGG [U12A A32U] | 1.1
26 | AACACUGCCAAAGCCGGUCCCAAGCCCGGAUACAAGUGGAGGGGGCGG [U12A A33C] | 1.04
27 | AACACUGCCAAAGCCGGUCCCAAGCCCGGAUAGAAGUGGAGGGGGCGG [U12A A33G] | 0.969

Row | Variant | self-cleavage
28 | AACACUGCCAAAGCCGGUCCCAAGCCCGGAUAAGAGUGGAGGGGGCGG [U12A A34G] | 1.02
29 | AACACUGCCAAAGCCGGUCCCAAGCCCGGAUAAUAGUGGAGGGGGCGG [U12A A34U] | 0.984
30 | AACACUGCCAAAGCCGGUCCCAAGCCCGGAUAAACGUGGAGGGGGCGG [U12A A35C] | 1.09
31 | AACACUGCCAAAGCCGGUCCCAAGCCCGGAUAAAGGUGGAGGGGGCGG [U12A A35G] | 1.06
32 | AACACUGCCAAAGCCGGUCCCAAGCCCGGAUAAAAGUGGGGGGGGCGG [U12A A40G] | 0.136
33 | AACACUGCCAAAGCCGGUCCCAAGCCCGGAUAAAAGUGGUGGGGGCGG [U12A A40U] | 0.192
34 | AACACUGCCAAAGUCGGUCCCAAGCCCGGAUAAAAGUGGAGGGGGCGG [U12A C14U] | 1.05
35 | AACACUGCCAAAGCUGGUCCCAAGCCCGGAUAAAAGUGGAGGGGGCGG [U12A C15U] | 1.1
36 | AACACUGCCAAAGCCGGUGCCAAGCCCGGAUAAAAGUGGAGGGGGCGG [U12A C19G] | 0.614
37 | AACACUGCCAAAGCCGGUUCCAAGCCCGGAUAAAAGUGGAGGGGGCGG [U12A C19U] | 0.882
38 | AACACUGCCAAAGCCGGUCUCAAGCCCGGAUAAAAGUGGAGGGGGCGG [U12A C20U] | 1.15
39 | AACACUGCCAAAGCCGGUCCAAAGCCCGGAUAAAAGUGGAGGGGGCGG [U12A C21A] | 0.152
40 | AACACUGCCAAAGCCGGUCCCAAGACCGGAUAAAAGUGGAGGGGGCGG [U12A C25A] | 0.15
41 | AACACUGCCAAAGCCGGUCCCAAGUCCGGAUAAAAGUGGAGGGGGCGG [U12A C25U] | 0.947
42 | AACACUGCCAAAGCCGGUCCCAAGCGCGGAUAAAAGUGGAGGGGGCGG [U12A C26G] | 0.446
43 | AACACUGCCAAAGCCGGUCCCAAGCCGGGAUAAAAGUGGAGGGGGCGG [U12A C27G] | 0.138
44 | AACACUGCCAAAGCCGGUCCCAAGCCCGGAUAAAAGUGGAGGGGGAGG [U12A C46A] | 1.09
45 | AACACUGCCAAAGCCGGUCCCAAGCCCGGAUAAAAGUGGAGGGGGGGG [U12A C46G] | 1.12
46 | AACACUGCCAAAUCCGGUCCCAAGCCCGGAUAAAAGUGGAGGGGGCGG [U12A G13U] | 0.577
47 | AACACUGCCAAAGCCAGUCCCAAGCCCGGAUAAAAGUGGAGGGGGCGG [U12A G16A] | 1.03
48 | AACACUGCCAAAGCCUGUCCCAAGCCCGGAUAAAAGUGGAGGGGGCGG [U12A G16U] | 1.09
49 | AACACUGCCAAAGCCGAUCCCAAGCCCGGAUAAAAGUGGAGGGGGCGG [U12A G17A] | 0.85
50 | AACACUGCCAAAGCCGUUCCCAAGCCCGGAUAAAAGUGGAGGGGGCGG [U12A G17U] | 0.41
51 | AACACUGCCAAAGCCGGUCCCAAACCCGGAUAAAAGUGGAGGGGGCGG [U12A G24A] | 0.103
52 | AACACUGCCAAAGCCGGUCCCAAGCCCAGAUAAAAGUGGAGGGGGCGG [U12A G28A] | 0.912
53 | AACACUGCCAAAGCCGGUCCCAAGCCCGCAUAAAAGUGGAGGGGGCGG [U12A G29C] | 0.949
54 | AACACUGCCAAAGCCGGUCCCAAGCCCGGAUAAAAAUGGAGGGGGCGG [U12A G36A] | 0.924
